# Data published in the nanobody polyreactivity screen of Harvey et al. (2022).
# Test: yeast display, Sf9 membrane polyspecificity reagent, FACS + sequencing; frameworks hold sequencing errors
# Summary of the method: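 A synthetic nanobody library was expressed on Saccharomyces cerevisiae BJ5465 by galactose induction for 36–48 hours. The library was stained for 1 hour at 4 °C with 10% biotinylated, detergent-solubilized Sf9 membrane reagent and enriched with streptavidin microbeads before FACS. Low and high (top ~1%) gates were set on anti-HA fluorescence for expression and streptavidin fluorescence for reagent binding, and each polyreactivity label reflects the gate of origin.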
row,Sequence,polyreactivity (PSR sort gate)
1,QVQLVESGGGLVQEGGSLRLSCAASGFIFDGNAMGWYRQAPGKERELVAAMSWDGGTYYADSVKGRFTISRDNAKNTVYLQMNSLKPEDTAVYYCAAEQTQLYSFGWDEYWGQGTQVTVSS,low polyreactivity
2,QVQLVESGGGLVQEGGSLRLSCAASGFIFSSNDMGWYRQPPGKERELVAVISRSGGRTYYADSVKGRFTISRDNAKNTVYLQMNSLKPEDTSVYYCNKKDRLGHSGRDYWGQGTQVTVSS,high polyreactivity
3,QVQLVESGGGLVQEGGSLRLSCAASGFIVSYYTMGWYRQAPGKERELVAAIRSSGGSTYADSVKGRFTISRDNAKNTVYLQMNSLKPEDTAVYYCAAVQTWRWVYARDYWGQGTQVTVSS,high polyreactivity
4,QVQLVESGGGLVQEGGSLRLSCAASGFTIRTYAMGWYRQAPGKERELVAAINTGGGTNYADSVKGRFTISRDNAKNTVYLQMNSLKPEDTAVYYCNSVHYYYYYWYSLYDSWGKGTQVTVSS,high polyreactivity
5,QVQLVESGGGLVQEGGSLRLSCAASGGIFGWYAMGWYRQAPGKERELVATITWRGGRTYYADSVKGRFTISRDNEKNTVYLQMNSLKPEDTAVYYCNAEWLWYDAGYRYTIRDSWGQGTQVTVSS,low polyreactivity
6,QVQLVESGGGLVQEGGSLRLSCAASGGTFYNYAMGWYRQAPGKERELVAAITYSGGITYYADSVKGRFTISRDNAKNTVYLQMNRLKPEDTAVYYCAADGYGNYDQYGYWGQGTQVTVSS,low polyreactivity
7,QVQLVESGGGLVQEGGSLRLSCAASGIIFGYNAMGWYRQAPGKERELVAAISRRGGTTYYADSVKGRLTISRDNSKNTVYLQMNSLKPEDTAVYYCAAQWSPTEHEYNYSGQGTQVTVSS,low polyreactivity
8,QVQLVESGGGLVQEGGSLRLSCAASGIIFYYNAMGWYRQAPGKERELVARITWRAGSTYYADSVKGRFTISRDNAKNTVYLQMNSLKPEDTAVYYCNADHDGLGYYYWGQGTQVTVSS,high polyreactivity
9,QVQLVESGGGLVQEGGSLRLSCAASGITFLQYAMGWYRQAPGKERELVAVISRGSRTYYADSVKGRFTISRDNAKNTVYLQMNCLQPDDTAVYYCAAVRGLALGYDYWGQGTQVTVSS,high polyreactivity
10,QVQLVESGGGLVQEGGSLRLSCAASGLICQHNARVWSRHAPGKERELVAAISRSAGSSYYADSEKGRFTISRDNAKNTVYLQMNCLKPEDTAVFYCAKRPTPTTKDDTVRYGYWGQGSQVTVSS,low polyreactivity
11,QVQLVESGGGLVQEGGSLRLSCAASGLIFYDNMGWYRQAPGKERELVAAISSSGGSTSYADSVKGRFTISRDNAKNTVYLQMNSLKPEDTAVYYCAADSYPAYLGFVGFDYWGQGTQVTVSS,low polyreactivity
12,QVQLVESGGGLVQEGGSLRLSCAASGNTLRVYAMGRYRQAPGTERELVAAISSSGGSTYYADSVKGRFTISRDNAKNTVYLQMYSLKPEDTAVYYCAKDNGPWFAYDYWGQGTQVTVSS,low polyreactivity
13,QVQLVESGGGLVQEGGSLRLSCAASGRIFATYVMGWYRQAPGKERELVAAISRRGSSTYYADSVKGRFTISRDNAKNTVYLQMNSLKPEDTAVYYCAAVHKVGWSRHYDYWGLGTQVTVSS,high polyreactivity
14,QVQLVESGGGLVQEGGSLRLSCAASGRIFTPYAMGWYRQAPGKERELVAVIRDGSTYYADSVKGRFTISRDNAKNTVYLQMNSLKPEDTAVYYCRYDIWVWWSGAYDYWGQGTQVTVSS,low polyreactivity
15,QVQLVESGGGLVQEGGSLRLSCAASGRLFGTYTMGWYRQAPGKERELVAAISWSGGNTYYADSVKGRFTISRDNAKNTVYLQMNSLKPEDTAVYYCNALYYRPPKWYGYWGQGTQVTVSS,high polyreactivity
16,QVQLVESGGGLVQEGGSLRLSCAASGRTFAHYAMGWYKQAPGKERELVAAISWSGGSTYYADSVKGRFTISRDNPKNTVYLQMNILKPEDTGVYYCNTLGGTEYGYWGPGTQVTVSS,high polyreactivity
17,QVQLVESGGGLVQEGGSLRLSCAASGRTFGVYAMGWYRQAPGKESTYYADSVKGRFTISRDNAKNTVYLQMNSQKQEDTAVYYCAADEWYYIDPSDDYWGQGSQVTVSS,low polyreactivity
18,QVQLVESGGGLVQEGGSLRLSCAASGRTFWQNAMGWYRQAAGKERELVAAIRIGGSTNYAVSVKGRFTISRDNAKNTVYLQMNSLKPEYTAFYYCAARRGYYSRNDYWGQVTQVTVSS,high polyreactivity
19,QVQLVESGGGLVQEGGSLRLSCAASGRTLRYNDMGWYRQAPGKERELVAAISTRGGSTYYADSVKGRFTISRDNAKNTVYLQMYSLKPEDTAVYYCAVTPRIPGHFEDYYWGQGTQVTVSS,low polyreactivity
20,QVQLVESGGGLVQEGGSLRLSCAASGSIFFYYAMGWYRQAPGKERELVAAITSSGDSTYYADSVKGRFTISRDNAKNTVYLQMNSLKPVETAVYYCAALYIGYTGYYYWGQGTQVTVSS,low polyreactivity
21,QVQLVESGGGLVQEGGSLRLSCAASGSIFLFYAMGWYRPAPGKERELVARITSSGGTTYYADSVKGRFTISRDNAKNTVYLQMNSLKPEDTAVYYCAAAYIRRSPYYYWGQGTQVTVSS,high polyreactivity

row,Sequence,polyreactivity (PSR sort gate)
1,QVQLVESGGGLVQEGGSLRLSCAASGSIFRKYAMGWYRQAPGKERELVAVITTDGSTNYADSVKGRFTISRDNAKNSVYLQMNSMNPEDTAVYYCNAVRSSIGTDIDYWGQGTQVTGSS,low polyreactivity
2,QVQLVESGGGLVQEGGSLRLSCAASGSIFSIYAMGWYRQAPGKERELVAAIDSGTSTTYADSVKGRFTISRDNAKNTVYLQMNSLKPEDTAVYYCAAALYSDVAAVATYGYYWGQGTQVTVSS,low polyreactivity
3,QVQLVESGGGLVQEGGSLRLSCAASGSIFYRNAMGWYRQAPGKERELVAAISSDGSTNYADSVKGRFTISRDNAKNTVYLHMNSLKPEDTAVYYCAAPWTQILDYWGQGTQVTVSS,low polyreactivity
4,QVQLVESGGGLVQEGGSLRLSCAASGSTFPGNAMGWYRQAPGKERELVAAIRDRGTSTYYADSVKGRFTISRDNAKNTVYLQMNSLKPEDTAVYYCAAASRVAKGRWRLYDYWGQGTQVTVSS,high polyreactivity
5,QVQLVESGGGLVQEGGSLRLSCAASGSTFRHNAMGRYRQAPGKERELVAVITDGASTNYADSVKGRFTISRDNAKNTVYLQMNSLKPEDTAVYYCAAYHRGYYTGREYYYWGQGTQVTVSS,low polyreactivity
6,QVQLVESGGGLVQEGGSLRLSCAASGSTFYIYGMGWYRQAPGKERELVARISSGGSTYADSVKGRFTISRDNAKNTVYLQMYSLKPEDTAVYYCAAAAARTYRRYRYEGYFYWGQGTQVTVSS,high polyreactivity
7,QVQLVESGGGLVQEGGSLRLTCAASGIIFTINAMGWYRQAPGKERELVAAIYWGTGTTYYADSVKGRFTISRDNAKNTVYLQMNSLKPEDTAVYYCAADGYDTYGYWGQGTQVTVSS,low polyreactivity
8,QVQLVESGGGLVQEGGSLRVSCAASGRIFANNAMAGYRQAPGKERELLAAISWSGGNTYYADSVKGRFTISRDNAKNTVYVQMNSLKPDDTAVYYCGAGSPRYSNNYVSYKGWDYSCGQGTQVTVSS,high polyreactivity
9,QVQLVESGGGLVQEGRSLRLSCAASGRIFCFNVMGWYRQAPGKERELVATISGRTGSTYYADSVKGRFTISRDNAKNTVYLQMNSLKPEVTAVYYCNAVRTVNDYHYDYWGQVTQVTVSS,high polyreactivity
10,QVQLVESGGGLVQGGGSLRLSCAASGINFSVYPMGWYRQAPGKERELVAAISVGGGRTYYAYSVKGRFTISRDYAKNTFYLEMNSLKAEDTAVYYCDARLGTRQYKMDYWGQGTQVTVSS,high polyreactivity
11,QVQLVESGGGLVQGGGSLRLSCAASGLIFARNAMGWYRQAPGKERELVAAISKRGGSTFYADSVKGRFTISRDNAKKTVYLQMNSLKPEDTAVYYCHARSSETWHGDYWGQGTQLTVSS,high polyreactivity
12,QVQLVESGGGLVQGGGSLRLSCAASGRTFQRYAMGWYRQAPGKERELVAAISNRGGSTYYADSVKGRFTISRDNAKNTVYLQMNSLKPEDTAVYYCRTSTPRRVSGNYWGQGTQVTVSS,high polyreactivity
13,QVQLVESGGGLVQGGGSLRLSCAASGSTFSRYAMGWYRPAPGKERELVAAITGTGGRTYYADSVKGRFTISRANAKNTVYLQRNSLKPEDTAVYYCAAQRWTVKYNYWGQGTQVTVSS,high polyreactivity
14,QVQLVESGGGLVQGGGSLRLSCAASGSTIPSYAMGCYRQAPGKERELVASITYSDGTTRYADSVKGRFTISRDHAKNPVYLQMNSLIPEDTELYSCNAVYYREGMDYWGQGTQVTVSS,low polyreactivity
15,QVQLVESGGGLVQGGGSLRLSCDASGLTFPSNAMRWYRQATAKERELVASINRRGTSTFYADSVKGRFTISRDNAKNTFYLQMNSMKPEDTAVYYCNAYEGAAIRSTGRYDYWGHGTQVTVSS,low polyreactivity
16,QVQLVESGGGLVQGGGSLRLSFAGSGFTFGRYLMGWYSQAPGKERELVAAISRSGGSTHYADSVKGRFTISRDYAMNHFYLQMNSLKPEDTAVYYCAAASPRWPGQGDYWGQGTQVTVSS,high polyreactivity
17,QVQLVESGGGLVQPGGRLRISCAASGRIFGRYAMGWYRLEPGKERELVAAITSSGGNTYYADSVKGRFTISRDNAKNTVYLQMNSMKPEDTAVYYCIARSARSRRQSDYWGQGTHVTVSS,high polyreactivity
18,QVQLVESGGGLVQPGGRLRLSCAASGFTFHDYAMGWYRPAPGKERELVAAITKSGGRTYYADSVKGRFTISRDNAKNTVYLQMNSLKPEDTAVYFCAAASYRSQYDYYYWGQGTQVTVSS,high polyreactivity
19,QVQLVESGGGLVQPGGSLRLSCAASGIIFGYYAMGWYRQAPGKERVLDAAISWSGGSTYYADSVKGRVTISRDNAKNTVYFQMNSLKPEDTAVYYCAAVVRRKSGNDTWRYNYWGQGTQVTVSS,high polyreactivity
20,QVQLVESGGGLVQPGGSLRLSCAASGLTFDDNAKGWYRHAPGKERELVAAISKSGDGTYYADSVKGRFTISRDNAKNTVYLHMNSLKPEDTAVYYCNADAKYWRYVYWWFGDDYWGQGTQVTVSS,low polyreactivity
